Values quoted from earlier work in article PMC7322545.
pKd: −log10 of the molar value.

What was measured:
CCL3 (Homo sapiens) = CCL3 (Homo sapiens) (UniProt P10147)
CCL4 (Homo sapiens) = CCL4 (Homo sapiens) (UniProt P13236)
CCL18 (Homo sapiens) = CCL18 (Homo sapiens) (UniProt P55774)

Measured: pKd

Sequence of UniProt P10147 (P10147 24-92): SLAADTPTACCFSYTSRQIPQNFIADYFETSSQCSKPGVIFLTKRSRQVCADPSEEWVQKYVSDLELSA
Sequence of UniProt P13236 (P13236 24-92): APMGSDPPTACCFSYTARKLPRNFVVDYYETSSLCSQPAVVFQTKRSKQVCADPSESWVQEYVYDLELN
Sequence of UniProt P55774 (P55774 24-89): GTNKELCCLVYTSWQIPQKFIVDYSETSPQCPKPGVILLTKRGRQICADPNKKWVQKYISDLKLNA

EVA-1 (from UniProt P0C8E7)
> 8.30: CCL3 (Homo sapiens) | CCL4 (Homo sapiens) | CCL18 (Homo sapiens)
